In patent US20150064273A1, “Mesenchymal Stem Cells Conditioned Medium and Methods of Generating and Using the Same” (Gamida-Cell Ltd., priority 2012, published 2015):

B1: BMP-3: member of the transforming growth factor beta family, known to enhance bone differentiation (protein, UniProt P12645 363-472, looked up)
Bone morphogenetic protein 3: QWIEPRNCARRYLKVDFADIGWSEWIISPKSFDAYYCSGACQFPMPKSLKPSNHATIQSIVRAVGVVPGIPEPCCVPEKMSSLSILFFDENKNVVLKVYPNMTVESCACR
B2: HB-EGF: heparin-binding EGF-like growth factor (protein, UniProt Q99075 63-148, looked up)
Heparin-binding EGF-like …: DLQEADLDLLRVTLSSKPQALATPNKEEHGKRKKKGKGLGKKRDPCLRKYKDFCIHGECKYVKELRAPSCICHPGYHGERCHGLSL
B3: PDGF-BB: platelet derived growth factor, homodimer, subunit B (protein, UniProt P01127 82-190, looked up)
Platelet-derived growth …: SLGSLTIAEPAMIAECKTRTEVFEISRRLIDRTNANFLVWPPCVEVQRCSGCCNNRNVQCRPTQVQLRPVQVRKIEIVRKKPIFKKATVTLEDHLACKCETVAAARPVT

Key:
MSCs = conditions: Tamama et al. 2010; cited from earlier work
mesenchymal stem cells [1] = assay: Mesenchymal stem cell culture with growth factors with or without nicotinamide, cell counts; format: cell-based; conditions: growth factor 10 or 50 ng/ml with 5 mM NAM; three or four passages
Method: Isolation: Bone marrow derived and adipose tissue derived mesenchymal cells were isolated based on their plastic adherence potential in expansion medium containing: High glucose DMEM and 10% Fetal Bovine Serum (FBS, Hyclone, Logan, Utah, USA) supplemented with 0.05 mg/ml Gentamicin (Sigma) and 2 mM L-glutamine (Biological Industries, Israel). Cells were allowed to adhere for 3-4 days and non-adherent cells were washed out with medium changes. The medium was further exchanged with fresh medium every 3-4 days.
Maintenance and expansion: Once adherent cells reached approximately 80-90% confluency, they were detached with 0.25% trypsin-EDTA (Sigma), washed twice in DMEM and 10% Fetal Bovine Serum, with centrifugation, 400 g, 5 minutes, and re-plated at a 1:2 to 1:1000 dilution under the same culture conditions.
Measurement of number of cells in culture: Cell number was measured using Cedex Automated Cell Counter (Innovatis). The cells were diluted 1:2 in Trypan Blue (Sigma) and cell number was measured automatically under microscope.
Treatment of mesenchymal cultures with nicotinamide: Mesenchymal cultures were initiated as described above, and supplemented with nicotinamide 1-15 mM alone, or in combination with growth factors or growth factors alone, incubated at 37° C. in a humidified atmosphere of 5% CO2 in air. At each passage and at each medium exchange, the cultures were supplemented with mesenchymal medium, nicotinamide and growth factors.
Mesenchymal stem cells were selected and cultured in the presence of particular growth factors (basic fibroblast growth factor—bFGF, heparin binding epidermal growth factor—HB-EGF, fibroblast growth factor 4—FGF-4 and platelet derived growth factor, homodimer, subunit B, PDGF-BB) in the presence and absence of nicotinamide for three or four passages and the number and size of the cells was calculated.
Two concentrations (10 and 50 ng/ml) of each one of the following factors were examined.
In addition, the influence of the combination: 5 mM NAM+50 ng/ml FGF4+50 ng/ml PDGF-BB was examined in comparison to an individual supplement.

MSC = conditions: Stewart et al. 2010; cited from earlier work
mesenchymal stem cells [2] = assay: Percent of MSC (CD105+CD45−) analyzed by FACS; format: cell-based; conditions: FGF4 or PDGF-BB 50 ng/ml, NAM 5 mM
Method: Four different batches of MSC cultures were treated with FGF4 (50 ng/ml), NAM (5 mM) or a combination of FGF4+NAM. Percent of MSC (CD105+CD45−) was analyzed by FACS. FIGS. 7A-D are graphs illustrating that MSC cultures treated with PDGF-BB or a combination of PDGF-BB+NAM comprise a higher fraction of cells other than MSCs that contaminates the cultures as compared to MSC cultured in the absence of PDGF-BB. Four different batches of MSC cultures were treated with PDGF-BB (50 ng/ml), NAM (5 mM) or a combination of PDGF-BB+NAM. Percent of MSC (CD105+CD45−) was analyzed by FACS. Surface antigen analysis: At different time points the cells were detached with 0.25% trypsin-EDTA. […] The cells were then washed in the above buffer and analyzed using a FACScalibur® flow cytometer (Becton Dickinson). […] Emission of 10000 cells was measured using logarithmic amplification, and analyzed using the CellQuest software (Becton Dickinson). Cells stained with FITC- and PE-conjugated isotype control antibodies were used to determine background fluorescence.

Molecule	effect on the ability of nicotinamide to increase proliferation of mesenchymal stem cells (mesenchymal stem cells [1])	further results
EGF: Epidermal growth factor	–	increase in number of colony-forming units (MSCs): 25%
basic FGF: basic fibroblast growth factor (bFGF, FGF2)	negative effect	–
B1	–	increase in MSC proliferation (MSC): threefold
B2	negative effect	–
B3	inconsistent effect	Percent of MSC (CD105+CD45−) in culture (mesenchymal stem cells [2]): contaminated with a higher fraction of cells other than MSCs
